According to paper PMC5206748:

Experiments:
[1] = target: TSP7 S77R (scFv) (mouse); assay: SPR; scFv (100 nM) captured on anti-His6-tag antibody on a CM5 chip; analyte 1.25-20 nM strand-swap dimer or 6.25-100 nM monomer construct; global fitting
[2] = target: human P-cadherin expressed on CHO cells (human) (UniProt P22223)

Chain of TSP7 S77R (scFv) (mouse) (heavy, as listed by the source): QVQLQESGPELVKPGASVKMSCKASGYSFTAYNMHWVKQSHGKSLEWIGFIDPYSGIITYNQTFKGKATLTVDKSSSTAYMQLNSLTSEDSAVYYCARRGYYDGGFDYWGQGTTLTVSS
Chain of human P-cadherin expressed on CHO cells (P22223 108-829): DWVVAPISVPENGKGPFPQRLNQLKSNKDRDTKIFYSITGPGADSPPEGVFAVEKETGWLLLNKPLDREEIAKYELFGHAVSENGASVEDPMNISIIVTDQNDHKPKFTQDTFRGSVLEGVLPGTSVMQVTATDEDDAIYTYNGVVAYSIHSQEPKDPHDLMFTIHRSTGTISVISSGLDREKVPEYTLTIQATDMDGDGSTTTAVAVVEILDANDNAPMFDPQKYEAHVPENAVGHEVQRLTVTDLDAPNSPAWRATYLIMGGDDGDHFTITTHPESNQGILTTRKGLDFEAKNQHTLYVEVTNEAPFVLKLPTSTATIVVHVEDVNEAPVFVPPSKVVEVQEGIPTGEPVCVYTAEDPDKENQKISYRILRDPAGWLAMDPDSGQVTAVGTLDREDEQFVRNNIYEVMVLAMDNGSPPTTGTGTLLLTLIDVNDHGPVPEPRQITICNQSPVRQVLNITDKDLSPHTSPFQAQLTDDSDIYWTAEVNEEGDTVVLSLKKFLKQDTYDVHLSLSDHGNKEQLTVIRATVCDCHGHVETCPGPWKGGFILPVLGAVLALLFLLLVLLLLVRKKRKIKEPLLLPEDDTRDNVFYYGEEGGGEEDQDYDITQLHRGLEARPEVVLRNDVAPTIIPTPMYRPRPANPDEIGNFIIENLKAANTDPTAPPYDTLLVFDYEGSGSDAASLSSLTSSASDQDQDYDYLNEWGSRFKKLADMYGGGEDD

Substance	fold change of affinity against TSP7 WT [1] [fold lower]	loss of dense fluorescent puncta of P-cadherin WT-mGFP at cell-cell boundaries of CHO cells after 100 nM TSP7 (0-120 min) [2] [%]
human P-cadherin EC12 K14E (domain or fragment)	2	–
human P-cadherin expressed on CHO cells (from UniProt P22223 108-829) (natural protein)	–	90
